Measured values from patent publication US20240383993A1 (LANOVA MEDICINES, published 2024).
Residue numbers refer to the chain shown, from its start. Numbers in names are those of the source.

T1: His-tagged cynomolgus 4-1BB protein (cynomolgus, UniProt A9YYE7 24-186)
T1 construct: Coated on ELISA plates at 2 µg/ml; also called Cyno 4-1BB; soluble cynomolgus 4-1BB; not shown: His tag
T1 sequence: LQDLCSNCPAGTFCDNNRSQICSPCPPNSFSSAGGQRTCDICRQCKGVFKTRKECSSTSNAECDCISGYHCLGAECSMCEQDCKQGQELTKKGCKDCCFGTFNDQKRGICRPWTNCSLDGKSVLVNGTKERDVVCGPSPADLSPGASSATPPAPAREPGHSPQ

B1: VV02-1SP (1)-168 (Fc fusion, not shown: a dimerising Fc or GST; small tags and cut ends)
VHH: QVQLVESGGGLVQPGGSLRLSCAASGFTFSSYAMSWARQAPGKDFEWVSYIYSDGNTYYADSVKGRFTISRDNAKNTVYLQMNSLKPEDTAVYYCATWHTLRVGVWDEYDYWGQGTQVTVSS
notes: Llama nanobody tested as fusion with human IgG1 Fc (N297A)
B2: VV02-1LP-263 (Fc fusion)
VHH: EVQLVESGGGLVQPGGSLRLSCAASGFTFSSSAMSWARQTPGKGFEWVSGIYSDGSTYYTDSVKDRFTISRDNAKNTVYLQMNSLKPEDTAVYYCATWGTLRFGVWAEYDHWGQGTQVTVSS
notes: Llama nanobody tested as fusion with human IgG1 Fc (N297A); not shown: Human IgG1 Fc fragment with N297A, fused at the C-terminus of the VHH
B3: VV02-1LP-238 (Fc fusion, not shown: a dimerising Fc or GST; small tags and cut ends)
VHH: QVQLVESGGGLVQAGGALRLSCAASGFTLDYSAIGWFRQAPGKEREGVLCISSSGDVTIYADSVKGRFTISRDNAKNTVYLQMNSLKPEDTAVYYCVAPRICSTYSSDDYWGQGTQVTVSS
notes: as for B1
B4: VV02-1LP-422 (Fc fusion, not shown: a dimerising Fc or GST; small tags and cut ends)
VHH: B3 VHH with V2L, A14P, A17S, D30A, Y31D, S32Y
notes: as for B1

molecular target: T2, human 4-1BB expressed on cells (human, UniProt Q07011 24-255); test: cell-based or functional assay
T2 sequence (Q07011 24-255): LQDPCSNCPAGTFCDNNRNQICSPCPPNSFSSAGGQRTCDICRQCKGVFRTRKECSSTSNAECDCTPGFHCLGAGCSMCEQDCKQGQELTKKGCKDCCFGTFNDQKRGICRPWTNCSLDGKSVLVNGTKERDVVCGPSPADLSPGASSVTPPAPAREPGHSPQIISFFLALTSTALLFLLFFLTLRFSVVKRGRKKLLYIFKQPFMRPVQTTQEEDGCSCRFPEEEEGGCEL

EC50 (nM) in Jurkat-41BB NFκB reporter assay [nM] | Binder
0.002 | B1
0.017 | B2
0.008 | B3
0.013 | B4

molecular target: T2, human 4-1BB expressed on cells; test: flow cytometry competition with biotinylated human 4-1BB ligand on CHO-K1/human 4-1BB cells
Procedure: CHO-K1 cells overexpressing human 4-1BB were incubated with biotinylated human 4-1BB ligand (0.3 μg/ml) in the presence of serial diluted anti-41BB nanobodies for 1 h at 4° C. with Ref mAb as the reference antibody. Then, cells were incubated with Alexa Fluor 633-conjugated streptavidin. Binding was measured with an Agilent flow cytometer. As shown in FIG. 2 and Table 3, all of the tested nanobodies could block 4-1BB ligand binding to 4-1BB in a concentration-dependent manner while Ref mAb had no such effect.

IC50 [nM] | Binder
0.387 | B1
0.566 | B2
1.88 | B3
1.48 | B4

molecular target: T1, His-tagged cynomolgus 4-1BB protein; test: ELISA, coated His-tagged 4-1BB, anti-human IgG-HRP
Procedure: (§1) His-tagged 4-1BB was coated at 2 μg/ml overnight and then blocked by 2% BSA in PBS. Serially diluted anti-4-1BB nanobodies were incubated with the coated antigen for 1h at room temperature with a reference antibody “Ref mAb”. The resulting plates were washed with PBS/T and incubated with goat anti-human IgG-HRP for 1 h at room temperature. The plates were developed with TMB substrate and analyzed by spectrophotometer at OD 450 nm.

EC50 [nM] | Binder
0.06 | B1
0.04 | B2
26.5 | B3
6.94 | B4

molecular target: T3, His-tagged human 4-1BB protein (human, UniProt Q07011 24-186); test: ELISA, coated His-tagged 4-1BB, anti-human IgG-HRP
T3 construct: Coated on ELISA plates at 2 µg/ml; also called hu4-1BB; soluble human 4-1BB; not shown: His tag
Procedure: as §1

EC50 [nM] | Binder
> 30 | B1
> 30 | B2
9.12 | B3
0.37 | B4
